Assay results: patent US20160347807A1, “TARGETING P53 AND ITS DNA-BINDING DOMAIN” (UNIVERSITY OF UTAH RESEARCH DOUNDATION, priority 2014, published 2016)
Entries after “also recorded” stand apart in the source; their conditions may differ.

What was measured:
Type in all cases: cell-based, human
SKOV-3 cells = test: 7-AAD assay in SKOV-3 cells
Method: (§1) Transfected T47D, H1373, SKOV-3 and HeLa cells were pelleted and re-suspended in 500 μL PBS (Invitrogen) containing 1 μM 7-aminoactinomycin D (7-AAD) (Invitrogen) for 30 min prior to analysis. T47D and H1373 cells were analyzed 48 h after transfection, while SKOV-3 and HeLa cells were analyzed 24 h after transfection (time points optimized empirically). Only EGFP positive cells were assayed using the FACS Canto-II (BD-BioSciences) with FACS Diva software as previously. EGFP and 7-AAD were excited at 488 nm, and detected at 507 nm and 660 nm, respectively. Independent transfections of each construct were assayed three times (n=3). The highest value (EGFP positive cells stained with 7-AAD) was set at 100%, and the lowest at 0% (relative 7-AAD) as previously.

T47D cells [1] = test: 7-AAD assay in T47D cells; conditions: 48 h after transfection, EGFP positive cells only
Method: (§2) Transfected T47D, MCF-7, MDA-MB-231, HeLa and H1373 cells were pelleted and resuspended in 500 μL PBS (Invitrogen) containing 1 μM 7-aminoactinomycin D (7-AAD) (Invitrogen) for 30 min prior to analysis following the recommended protocol from the manufacturer. The assay was performed 48 h after transfection for T47D, MCF-7 and H1373 and 24 h after transfection for MDA-MB-231 and HeLa. Only EGFP positive cells were analyzed by using the FACS Canto-II (BD-BioSciences) with FACS Diva software. EGFP and 7-AAD were excited with the 488 nm laser, and were detected at 507 nm and 660 nm, respectively. Independent transfections of each construct were tested three times (n=3).
as §1

H1373 cells = test: 7-AAD assay in H1373 cells; conditions: H1373 (p53 null), 48 h after transfection
Method: as §2, §1

HeLa cells = test: 7-AAD assay in HeLa cells; conditions: 24 h after transfection
Method: as §2, §1

T47D cells [2] = test: Annexin V assay in T47D cells; conditions: 48 h after transfection
Method: 48 h after transfection, T47D cells were pelleted and resuspended in 400 μL of annexin-V binding buffer (Invitrogen) and incubated with 5 μL of annexin-APC (annexin-V conjugated to allophycocyanin, Invitrogen) for 15 min as before. Only transfected cells were analyzed as mentioned in 7-AAD assay. EGFP and APC were excited at 488 nm and 635 nm wavelengths, respectively and detected at their corresponding 507 nm and 660 nm wavelengths. Independent transfections of each construct were tested three times (n=3).

T47D cells [3] = test: TUNEL assay in T47D cells; conditions: 48 h after transfection
Method: T47D cells were harvested 48 h after transfection. In situ Death Detection Kit, TMR red (Roche, Mannheim, Germany) was used following manufacturer's recommendations as before. Cells were resuspended in PBS (Invitrogen) and analyzed via the FACSAria-II (BD-Biosciences, University of Utah Core Facility). EGFP and TMR red were excited at 488 nm and 563 nm, respectively, and FACSDiva software was used to analyze the data. Independent transfections of each construct were tested three times (n=3).

T47D cells [4] = test: Rescue experiment using BFP-Bcl-XL (7-AAD) in T47D cells; conditions: 48 h after transfection, Bcl-XL overexpression
Method: T47D cells were co-transfected with 1 pmol of EGFP constructs and 1 pmol of BFP-Bcl-XL (BFP tag is necessary for gating Bcl-XL transfected cells). 48 h after transfection the 7-AAD assay was performed as described above. FACSCanto-II (BD-BioSciences) and FACSDiva software were used for EGFP and BFP gating. Excitation was set at 488 nm, and detected at 507 nm and 660 nm for EGFP and 7-AAD, respectively. BFP was excited at 405 nm and detected at 457 nm. Independent transfections of each construct were tested three times (n=3).

## DBD-BakMTS: DBD of p53 cloned between EGFP and Bak MTS
SKOV-3 cells; SKOV-3 (p53 null), 24 h after transfection
  7-AAD positive cells (late apoptosis): significantly higher than their negative control E-BakMTS; also recorded: trending higher; also recorded: induces late stage apoptosis
SKOV-3 cells; ovarian cancer cells SKOV-3
  apoptosis in SKOV-3 (assay not stated at place): triggers apoptosis
T47D cells [1]
  7-AAD positive cells (late apoptosis): significantly higher apoptosis compared to cells transfected with MTS negative controls; also recorded: trending higher; also recorded: induces robust apoptosis, similar to, or greater than wt p53 with MTS; also recorded: outperformed DBD-BaxMTS; also recorded: induces apoptosis in all 3 cell lines
H1373 cells
  7-AAD positive cells (late apoptosis): statistically higher from their negative control E-BakMTS; also recorded: significantly higher activities compared to their positive controls; also recorded: induces robust apoptosis, similar to, or greater than wt p53 with MTS; also recorded: outperformed DBD-BaxMTS; also recorded: induces apoptosis in all 3 cell lines
HeLa cells
  7-AAD positive cells (late apoptosis): significant from their corresponding negative controls; also recorded: trend of higher apoptotic activity in HeLa cells compared to p53-BakMTS; also recorded: induces robust apoptosis, similar to, or greater than wt p53 with MTS; also recorded: outperformed DBD-BaxMTS; also recorded: induces apoptosis in all 3 cell lines

## DBDK120E-BakMTS: DBD-BakMTS with K120E mutation
T47D cells [1]
  7-AAD positive cells (late apoptosis): not statistically significant from the negative control E-BakMTS

## p53K120E-BakMTS: p53-BakMTS with K120E mutation
T47D cells [1]
  7-AAD positive cells (late apoptosis): not statistically significant from the negative control E-BakMTS

## p53m6-BakMTS: p53-BakMTS with K120A, R248A, R273A, R280A, E285A, E287A mutations
T47D cells [1]
  7-AAD positive cells (late apoptosis): not significantly different from their negative control; also recorded: complete loss in apoptotic activity compared to their non-mutated controls

## p53ΔC-XL: EGFP, p53ΔC (amino acids 1-322, lacks the C-terminus) and XL MTS
T47D cells [1]
  7-AAD positive cells (late apoptosis): statistically higher than the negative control E-XL; also recorded: not statistically significant from each other

B1: DBDm6-BakMTS: DBD-BakMTS with K120A, R248A, R273A, R280A, E285A, E287A mutations (protein)
chain: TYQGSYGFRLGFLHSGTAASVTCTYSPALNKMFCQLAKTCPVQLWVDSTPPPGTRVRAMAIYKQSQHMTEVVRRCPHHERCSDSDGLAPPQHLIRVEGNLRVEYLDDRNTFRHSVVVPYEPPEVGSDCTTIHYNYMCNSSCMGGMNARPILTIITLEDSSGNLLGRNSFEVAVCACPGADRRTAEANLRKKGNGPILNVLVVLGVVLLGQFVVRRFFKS
modifications: left off: large carriers
notes: DBD-BakMTS with K120A, R248A, R273A, R280A, E285A, E287A mutations
T47D cells [1]
  7-AAD positive cells (late apoptosis): not significantly different from their negative control; also recorded: complete loss in apoptotic activity compared to their non-mutated controls

B2: PRD-XL: EGFP, proline-rich domain of p53, XL MTS (protein)
chain: APRMPEAAPPVAPAPAAPTPAAPAPAPSWPLSSSVRKGQERFNRWFLTGMTVAGVVLLGSLFSRK
modifications: left off: large carriers
notes: EGFP, proline-rich domain of p53, XL MTS
T47D cells [1]
  7-AAD positive cells (late apoptosis): not statistically significant from the negative control E-XL indicating no apoptotic activity; also recorded: statistically significantly lower than p53-XL
T47D cells [2]
  Annexin V positive cells (apoptotic potential): not statistically significant from the negative control
T47D cells [3]
  TUNEL positive cells (DNA fragmentation): not statistically different from the negative control; also recorded: statistically significantly lower than p53-XL
HeLa cells
  7-AAD positive cells (late apoptosis): statistically significant from p53-XL
T47D cells [4]
  apoptotic activity (7-AAD) on cotransfection of BFP-Bcl-XL (rescue): not altered by Bcl-XL overexpression

B3: TD-XL: EGFP, tetramerization domain of p53, XL MTS (protein)
chain: LDGEYFTLQIRGRERFEMFRELNEALELKDAQAGRKGQERFNRWFLTGMTVAGVVLLGSLFSRK
modifications: left off: large carriers
notes: EGFP, tetramerization domain of p53, XL MTS
T47D cells [1]
  7-AAD positive cells (late apoptosis): statistically different from the negative controls but is also significantly lower than p53-XL
T47D cells [2]
  Annexin V positive cells (apoptotic potential): not statistically significant from the negative control
T47D cells [3]
  TUNEL positive cells (DNA fragmentation): not statistically different from the negative control; also recorded: statistically significantly lower than p53-XL
T47D cells [4]
  apoptotic activity (7-AAD) on cotransfection of BFP-Bcl-XL (rescue): reduction in apoptotic potential
